Our source for the IC50 values is patent US20080287363A1.

Experiment [1] has as its target CCL5/RANTES (UniProt P13501). The experiment is described as follows: equilibrium competition receptor binding assay (SPA): inhibition of 0.1 nM 125I-RANTES binding to CHO/CCR1 membranes.
In experiment [2] the target is CCL5/RANTES (UniProt P13501). As to the kind of experiment: equilibrium competition receptor binding assay (SPA): inhibition of 0.1 nM 125I-RANTES binding to CHO/CCR5 membranes.
Sequence of CCL5/RANTES (P13501 24-91 limits assumed): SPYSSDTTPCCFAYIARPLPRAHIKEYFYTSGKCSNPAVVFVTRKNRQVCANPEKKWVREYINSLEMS

Broadly, the IC50 is the concentration that gives 50% inhibition. A low value points to greater potency. With “recombinant Δ6 evasin-4 (truncated, N-terminally 6His tagged evasin-4, amino acids 24-127), purified”, the concentration for half-maximal inhibition (IC50) with CCL5/RANTES [1] worked out at 7 nM; with CCL5/RANTES [2], 3 nM.
